Results from patent US20110065645A1, “Compositions and Methods for Modulating Neuron Degeneration and Neuron Guidance” (The Regents of the University of California, priority 2009, published 2011).

Legend:
cortical neurons = experiment: Cortical neuron death/survival assay under PKCζ inhibition (Tuj1, TUNEL, DAPI staining); type: cell-based
Excerpt: 1. PKCζ is required for survival of cortical neurons. E15.5 cortical neurons were dissociated and cultured for 2 days in the presence of various concentrations of a cell membrane penetrating myristoylated peptide derived in the pseudosubstrate domain of PKC (FIGS. 12A-12D). This peptide is a specific inhibitor of PKCζ.
2. Axon degeneration procedes cell body death when PKC is inhibited. We examined the timing of axon degeneration and cell body death. […] The death induced by PKCζ inhibition is much faster than Aβ peptide induced neuronal death (FIG. 12D), probably because the PKCζ is an essential kinase and peptide inhibition causes instant death, whereas Aβ has to bind to cell surface receptor and trigger a signaling cascade to cause death, which requires a longer time.
3. Wnts are trophic factors for cortical neurons. […] Nuclear shrinkage (pyknosis) is a hallmark of neuronal cell death. Using DAPI staining, we can visualize the cell nuclei (FIG. 14B). […] Initial cortical axons and dendrite form and grow but axons start to disintegrate at E18.5 (FIG. 14D, from Wang et al 2006),^(13) (FIGS. 12F, 12K). Based on our preliminary results, we propose that Wnts are not only axon guidance molecules but also regulate neuronal survival and axon degeneration acting via PKC (FIG. 15).
3. Survival and cell death assays for screening of monoclonal antibodies and small compounds. We use the same cell death/survival assay as described in FIGS. 12A-14D and use microtubule staining to analyze the integrity of microtubules, DAPI stain to measure the size of cell nuclei and TUNEL staining to assay cell death. Microtubule disassembly is quantified by staining intensity of Tuj1 and Tau antibodies. The size of cell nuclei is binned into difference sizes and the distribution of the nuclei size is used as quantification of pyknosis (FIG. 14C).

JNK = experiment: Phospho-Jun immunoblot in dissociated commissural neurons; type: cell-based, rat; details: within 15 minutes of bath application; 200 ng/ml
Excerpt: JNK is activated by Wnt5a in commissural axons and required for their A-P guidance. Several Wnt genes are expressed in an anterior-posterior gradient in or around the floor plate of the spinal cord. However, the mechanisms of how Wnt signaling mediates axon attraction and growth have yet to be elucidated. We tested whether JNK signaling is activated in commissural neurons via Wnt5a stimulation by measuring the levels of phospho Jun (FIG. 20A) and also examined whether JNK is required for A-P guidance of commissural axons. Commissural neurons were cultured for 36 hrs and subject to bath application of Wnt5a. […] Furthermore, endogenous Fzd3 and Vgl2 proteins can be detected in rat E13 commissural neuron lysates after 36 hours in culture (anti-Fzd3 and anti-Vgl2 IB, FIG. 20A). The specificity of Fzd3 and Vgl2 antibodies for western blot analysis was validated using knock and mutant mouse line (FIG. 27D and FIG. 27E).
Commissural neuron culture, treatment and lysis. Rat E13 embryos were dissected and commissural neuron culture was prepared as previously described (Augsburger et al., 1999). […] The cells were then lysed on ice and the lysates were analyzed on immunoblots.

commissural axons = experiment: Axon length of electroporated dissociated commissural neurons on Wnt5a-coated coverslips; type: cell-based, rat
Excerpt: Fzd3 mediates Wnt-stimulated commissural axon elongation. To directly test the function of PCP components in Wnt-mediated outgrowth of commissural axons, we electroporated DNA constructs to express PCP components in dissociated commissural neurons. The spinal cord of E11.5 mouse or E13 rat contains a ventricle into which plasmid DNA can be introduced (FIG. 28A). After injecting DNA into the central canal and electroporation, the spinal cord was dissected into an “open-book” configuration and then the dorsal spinal cord margin including the progenitor domains was dissociated as previously described ((Augsburger et al., 1999), FIG. 28A). More than 90% of the electroporated and dissociated neurons were TAG-1 immuno-reactive, confirming that they are commissural neurons (Wolf et al., 2008).
This may be due the presence of low endogenous levels of PCP components in these axons following 24 hours of culture (FIGS. 20A-20E).
Electroporated commissural culture. Electroporations of rat E13 spinal cords were completed as previously described (Wolf et al., 2008). Neurons were dissociated from these spinal preps and grown as previously described (Augsburger et al., 1999). […] The axons lengths were quantified with Zeiss LSM510 software, verified with ImageJ quantification, and the data were analyzed with an unpaired two-tailed t test for each electroporation condition.

B1: Wnt5a: recombinant Wnt5a protein (R&D Systems) (protein, UniProt P41221 62-380, looked up)
Protein Wnt-5a: IIGAQPLCSQLAGLSQGQKKLCHLYQDHMQYIGEGAKTGIKECQYQFRHRRWNCSTVDNTSVFGRVMQIGSRETAFTYAVSAAGVVNAMSRACREGELSTCGCSRAARPKDLPRDWLWGGCGDNIDYGYRFAKEFVDARERERIHAKGSYESARILMNLHNNEAGRRTVYNLADVACKCHGVSGSCSLKTCWLQLADFRKVGDALKEKYDSAAAMRLNSRGKLVQVNSRFNSPTTQDLVYIDPSPDYCVRNESTGSLGTQGRLCNKTSEGMDGCELMCCGRGYDQFKTVQTERCHCKFHWCCYVKCKKCTEIVDQFVCK
axon degeneration / reduction of microtubule staining (Tuj1) (cortical neurons; 5 um pseudosubstrate peptide): much less degeneration was seen
axons remaining judged by Tuj1 staining (cortical neurons; 10 um pseudosubstrate peptide): more axons still remain
cell death induced by PKC inhibition (cortical neurons; pretreatment before pseudosubstrate peptide): block/reduce the cell death
increase of endogenous phospho-Jun levels (JNK): 4 fold
increase in axon growth (commissural axons; control neurons expressing EGFP): ~15%
enhancement of axon length (commissural axons; neurons over-expressing Fzd3-EGFP, within 24 hours): ~36%
